What follows are binders tested against T1, CS1-Fc (human, UniProt Q9NQ25 23-226) (assay: SPR (Biacore), adapter protein DD-GS linker-Q26, CS1-Fc target).
T1 construct: also called recombinant human CS1-Fc; CS1-Fc polypeptide; not shown: Fc portion of CS1-Fc
T1 sequence: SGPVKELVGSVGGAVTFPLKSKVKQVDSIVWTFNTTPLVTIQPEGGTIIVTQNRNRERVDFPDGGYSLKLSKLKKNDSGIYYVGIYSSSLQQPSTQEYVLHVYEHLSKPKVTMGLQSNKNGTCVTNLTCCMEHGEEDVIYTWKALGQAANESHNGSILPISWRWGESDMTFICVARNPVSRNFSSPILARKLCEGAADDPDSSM
Excerpt: One or more of the above discussed methods were used to identify the SEQ ID NO: 41-47, 49-61, 91-93 and 96-106 variant CS1 specific D domains. […] In addition to binding human CS1, the CS1DD03, CSDD006 and CS1DD007 D domains are cross-reactive with cyno/rhesus CS1.

Row | Binder | Kd [µM]
1 | CS1DD006-P26(Q26) Adapter (designed binder, Monovalent Adapter: CS1DD006 D domain, GS linker, AFP p26 (Q26); The SPR sentence names only the format DD-GS linker-Q26; also called monovalent CS1DD006-P26(Q26); CS1DD006 adapter protein of the format DD-GS linker-Q26) MGSWAEFFTRLDAIWERLEGLGGSEAELAAFEKEIAAFESELQAYKGKGYPEVETLKFHAAGIRQKLQAYRHNGGGGDGGGGSGGGGSGQESQALAKRSCGLFQKLGEYYLQNAFLVAYTKKAPQLTSSELMAITRKMAATAATCCQLSEDKLLACGEGAADIIIGHLCIRHEMTPVNPGVGQCCTSSYANRRPCFSSLVVDETYVPPAFSDDKFIFHKDLCQAQGVALQTMKQEFLINLVKQKPQITEEQLEAVIADFSGLLEKCCQGQEQEVCFAEEGQKLISKTRAALGV | 0.038
2 | CS1DD007 adapter protein of the format DD-GS linker-Q26 (designed binder) MGSWAEFFTRLDAIWERLEGLGGSEAELAALEKEIAAFESELQAYKGKGYPEVETLKFHAAGIRQKLQAYRHN | 0.023
3 | CS1DD018 adapter protein of the format DD-GS linker-Q26 (designed binder) MGSWDEFNQRLGAFEERLQALGGSEAELAAFEKEIAAFESELQAYKGKGNPEVEFLRWYADGIRWELQAYRHNGGGGDGGGGSGGGGSGQESQALAKRSCGLFQKLGEYYLQNAFLVAYTKKAPQLTSSELMAITRKMAATAATCCQLSEDKLLACGEGAADIIIGHLCIRHEMTPVNPGVGQCCTSSYANRRPCFSSLVVDETYVPPAFSDDKFIFHKDLCQAQGVALQTMKQEFLINLVKQKPQITEEQLEAVIADFSGLLEKCCQGQEQEVCFAEEGQKLISKTRAALGV | 0.04
4 | CS1DD020-P26(Q26) Adapter (designed binder, Monovalent Adapter: CS1DD020 D domain, GS linker, AFP p26 (Q26); The SPR sentence names only the format DD-GS linker-Q26; also called monovalent CS1DD020-P26(Q26); C1DD020 adapter protein of the format DD-GS linker-Q26) MGSWDEFNQRLGAIEERLQALGGSEAELAALEKEIAAFESELQAYKGKGNPEVEFLRWYADGIRWELQAYRHNGGGGDGGGGSGGGGSGQESQALAKRSCGLFQKLGEYYLQNAFLVAYTKKAPQLTSSELMAITRKMAATAATCCQLSEDKLLACGEGAADIIIGHLCIRHEMTPVNPGVGQCCTSSYANRRPCFSSLVVDETYVPPAFSDDKFIFHKDLCQAQGVALQTMKQEFLINLVKQKPQITEEQLEAVIADFSGLLEKCCQGQEQEVCFAEEGQKLISKTRAALGV | 0.018

The binders below were run against T1, CS1-Fc (assay: phage ELISA, CS1-Fc captured on anti-human IgG1-Fc, anti-M13-HRP, A450 target / A450 IgG1-Fc).
Description: To identify new CS1-specific D domains, a D domain phage library described in Intl. Appl. Pub. No. WO 2016164305 and U.S. Pat. No. 10,662,248 was screened with a CS1-Fc polypeptide following standard protocols. Individual colonies containing phagemid from the CS1 panning output were picked and phage were rescued. To assay target binding by ELISA, 96-well plates were coated with anti-human IgG1-Fc antibody followed by incubation with CS1-Fc or IgG1-Fc. Rescued phage diluted in ELISA blocking buffer was then added to each well. Binding was detected using an HRP-conjugated anti-M13 antibody and the ELISA ratio for each DD sequence was determined as the absorbance at 450 nm for target (i.e., CS1-Fc) divided by that for IgG1-Fc averaged across all screened wells containing that clone.

Row | Binder | ELISA score (ratio of phage binding to CS1-Fc vs IgG-Fc) [ratio]
5 | SEQ ID NO 65 (designed binder) MGSWVEFEWRLYAIAGRLEALGGSEAELAAFEKEIAAFESELQAYKGKGNPEVEYLRQGAARIRATLQAYRHN | 15.7
6 | CS1DD023 (designed binder) MGSWVEFYDRLEAIWQRLEALGGSEAELAAFEKEIAAFESELQAYKGKGNPEVEKLRRHAAGIRMRLQAYRHN | 18.8
7 | SEQ ID NO 86 (designed binder) MGSWIEFQTRLEAIYQRLDALGGSEAELAAFEKEIAAFESELQAYKGKGNPEVETLRWHAAGIRQYLQAYRHN | 6.03
8 | SEQ ID NO 88 (designed binder) MGSWEEFYVRLDAIWERLEALGGSEAELAAFEKEIAAFESELQAYKGKGNPEVEGLRWHAAGIRERLQAYRHN | 13.5
9 | SEQ ID NO 76 (designed binder) MGSWEEFQNRLGAIWDRLEALGGSEAELAAFEKEIAAFESELQAYKGKGNPEVESLRWHAAGIRTRLQAYRHN | 16.6
10 | SEQ ID NO 84 (designed binder) MGSWIEFGWRLQAIEERLRALGGSEAELAAFEKEIAAFESELQAYKGKGNPEVEVLREWAAEIRWQLQAYRHN | 16.3
11 | SEQ ID NO 72 (designed binder) MGSWYEFWHRLTAIEQRLWALGGSEAELAAFEKEIAAFESELQAYKGKGNPEVEDLRSYAAEIRWRLQAYRHN | 8.75
12 | SEQ ID NO 68 (designed binder) MGSWYEFWTRLTAIQMRLDALGGSEAELAAFEKEIAAFESELQAYKGKGNPEVEDLRAFAAQIRTHLQAYRHN | 13.1
13 | SEQ ID NO 75 (designed binder) MGSWHEFWTRLTAIQMRLDALGGSEAELAAFEKEIAAFESELQAYKGKGNPEVEDLRAFAAQIRTHLQAYRHN | 16
14 | SEQ ID NO 62 (designed binder) MGSWHFFKARLAYIKQGLEALGGSEAELALFEEFIAEFESDLQQYKGKGNPEVEALRKEAAAIRDELQAYRHN | 13.5
15 | SEQ ID NO 87 (designed binder) MGSWTEFHNRLWAIYDRLDALGGSEAELAAFEKEIAAFESELQAYKGKGNPEVETLRHHAAGIRRSLQAYRHN | 14.7
16 | SEQ ID NO 85 (designed binder) MGSWNEFNERLGAINHRLRALGGSEAELAAFEKEIAAFESELQAYKGKGNPEVEVLREGAAWIRAELQAYRHN | 18.6
17 | SEQ ID NO 80 (designed binder) MGSWTEFWYRLSAIDLRLEALGGSEAELAAFEKEIAAFESELQAYKGKGNPEVEELRDYAAYIRAELQAYRHN | 17.8
18 | SEQ ID NO 81 (designed binder) MGSWSEFWIRLAAIELRLSALGGSEAELAAFEKEIAAFESELQAYKGKGNPEVEELRDYAAIIRRELQAYRHN | 13.8
19 | SEQ ID NO 71 (designed binder) MGSWSEFWHRLSAIDARLEALGGSEAELAAFEKEIAAFESELQAYKGKGNPEVEDLRAYAAMIRNVLQAYRHN | 14
20 | SEQ ID NO 70 (designed binder) MGSWMEFWHRLTAIDSRLEALGGSEAELAAFEKEIAAFESELQAYKGKGNPEVEDLRQYAASIRKSLQAYRHN | 10.5
21 | SEQ ID NO 73 (designed binder) MGSWSEFWHRLSAIDHRLGALGGSEAELAAFEKEIAAFESELQAYKGKGNPEVEELRAYAAEIRRNLQAYRHN | 18.7
22 | SEQ ID NO 83 (designed binder) MGSWTEFWARLTAIDLRLIALGGSEAELAAFEKEIAAFESELQAYKGKGNPEVEELRDYAAFIRANLQAYRHN | 13.4
23 | SEQ ID NO 79 (designed binder) MGSWSEFWTRLAAIDMRLNALGGSEAELAAFEKEIAAFESELQAYKGKGNPEVEDLRDYAAQIREELQAYRHN | 18.7
24 | SEQ ID NO 78 (designed binder) MGSWAEFWFRLAAIQMRLYALGGSEAELAAFEKEIAAFESELQAYKGKGNPEVEDLRDYAAHIRQELQAYRHN | 17.7
25 | SEQ ID NO 69 (designed binder) MGSWYEFWSRLSAIHVRLEALGGSEAELAAFEKEIAAFESELQAYKGKGNPEVEDLRAYAAFIRSELQAYRHN | 16.9
26 | SEQ ID NO 82 (designed binder) MGSWSEFWNRLIAIDYRLLALGGSEAELAAFEKEIAAFESELQAYKGKGNPEVEELRDYAAHIRWNLQAYRHN | 16.3
27 | SEQ ID NO 77 (designed binder) MGSWSEFWFRLLAIEQRLEALGGSEAELAAFEKEIAAFESELQAYKGKGNPEVEDLRDYAALIREMLQAYRHN | 17.8
28 | SEQ ID NO 74 (designed binder) MGSWSEFWMRLTAIDMRLAALGGSEAELAAFEKEIAAFESELQAYKGKGNPEVEELRDYAAVIRESLQAYRHN | 18.3
29 | SEQ ID NO 66 (designed binder) MGSWAEFWSRLSAIDERLGALGGSEAELAAFEKEIAAFESELQAYKGKGNPEVEELREYAAEIRRVLQAYRHN | 18
30 | SEQ ID NO 89 (designed binder) MGSWSEFNSRLDAIFDRLFALGGSEAELAAFEKEIAAFESELQAYKGKGNPEVEELRSHAANIRASLQAYRHN | 19.6
31 | SEQ ID NO 90 (designed binder) MGSWSEFWIRLDAIRERLWALGGSEAELAAFEKEIAAFESELQAYKGKGNPEVEELRYFAANIRQQLQAYRHN | 16.3
32 | CS1DD008 (designed binder) MGSWDEFNQRLGAIEERLQALGGSEAELAAFEKEIAAFESELQAYKGKGNPEVEFLRWYAAGIRWELQAYRHN | 19.2

From US20250353908A1 (ARCELLX, published 2025)
